Assay [1] concerns the target T1, SARS-CoV-2 spike (S) protein peptide on HLA-DPA1*01:03 / HLA-DPB1*04:01 (human).
T1 peptide: TFEYVSQPFLMDLE
As to the kind of experiment: multimer staining.

For assay [2], the target named is T2, SARS-CoV-2 spike (S) protein peptide on HLA-DPA1*01:03 / HLA-DPB1*04:01 (human).
T2 peptide: CTFEYVSQPFLMDLE
The assay can be described thus: activation reporter or marker.

Assay [3] addresses T3, SARS-CoV-2 spike (S) protein peptide on HLA-DPA1*01:03 / HLA-DPB1*04:01 (human).
T3 peptide: TFEYVSQPFLMDLE
The assay can be described thus: multimer staining.

B1: TCR6.3 (TCR)
alpha TRAV35 TRAJ42 CDR3: CAGMNYGGSQGNLIF
beta TRBV6-3 TRBJ1-2 CDR3: CASSYRGAYGYTF
Consider B1, for which the binding result in assay [1] and in assay [2] was “recognises” throughout.

B2: TCR4.1 (TCR)
alpha TRAV35 TRAJ42 CDR3: CAGMNYGGSQGNLIF
beta TRBV4-1 TRBJ1-2 CDR3: CASSQGVGYTF
On to B2, for which the binding result in assay [1], in assay [3] and in assay [2] was “recognises” throughout.

The record behind these values is publication PMC8695127 (2021).
